Data from PMC6327041 (2019).
Where no end group is shown, it is not given here. [ ]: non-standard residue; d: D form. pT = C[C@@H](OP(=O)(O)O)[C@H](N)C(=O)O

B1: GST-PHD1 (S287-K347) of KDM5A (domain or fragment)
chain: SVNFVDLYVCMFCGRGNNEDKLLLCDGCDDSYHTFCLIPPLPDVPKGDWRCPKCVAEECSK

Assays:
[1] = molecular target: H3 10mer peptide mutated at R2 (UniProt P68431 2-11); test: FP; H3R2A
[2] = molecular target: B1; test: FP
[3] = molecular target: B1; test: FP; H3R2me2s (symmetric dimethyl)
[4] = molecular target: B1; test: FP; H3R2me2a (asymmetric dimethyl)
[5] = molecular target: B1; test: FP; H3T6ph
[6] = molecular target: B1; test: FP; H3R8me2a (asymmetric dimethyl)
[7] = molecular target: B1; test: FP; H3R8me2s (symmetric dimethyl)

## B1
[1]
  Kd: 205000 nM

## ARTKQTARKS [unmodified H3 10mer effector peptide (H3 Ala1-Ser10)]
[2]
  Kd: 996 nM

## ARTKQTARKS (also: methylated Arg2, degree of methylation not given here) [H3 10mer peptide methylated at R2]
[3]
  Kd: 5310 nM
[4]
  Kd: 5410 nM

## ARTKQ[pT]ARKS [H3 10mer peptide phosphorylated at T6]
[5]
  Kd: 72000 nM

## ARTKQTARKS (trimethyl-lysine at 9 (K9me3)) [H3K9me3 10mer peptide]
[2]
  Kd: 740 nM

## ARTKQTARKS (also: methylated Arg8, degree of methylation not given here) [H3 10mer peptide methylated at R8]
[6]
  Kd: 1840 nM
[7]
  Kd: 2010 nM

## ARTKQTARKS (acetyl-lysine at 9 (K9ac)) [H3K9ac 10mer peptide]
[2]
  Kd: 1010 nM
